# From patent publication US20110275102
# T1: Crosstide GRPRTSSFAEG
# T1 chain: GRPRTSSFAEG
# Experiments:
# [1] = molecular target: GSK3-β partially purified from rabbit skeletal muscle, A0A5F9
# [2] = molecular target: GSK3-α partially purified from rabbit skeletal muscle
# [3] = molecular target: T1, Crosstide GRPRTSSFAEG
# Chain of GSK3-β partially purified from rabbit skeletal muscle, A0A5F9 (A0A5F9 entry or part of it): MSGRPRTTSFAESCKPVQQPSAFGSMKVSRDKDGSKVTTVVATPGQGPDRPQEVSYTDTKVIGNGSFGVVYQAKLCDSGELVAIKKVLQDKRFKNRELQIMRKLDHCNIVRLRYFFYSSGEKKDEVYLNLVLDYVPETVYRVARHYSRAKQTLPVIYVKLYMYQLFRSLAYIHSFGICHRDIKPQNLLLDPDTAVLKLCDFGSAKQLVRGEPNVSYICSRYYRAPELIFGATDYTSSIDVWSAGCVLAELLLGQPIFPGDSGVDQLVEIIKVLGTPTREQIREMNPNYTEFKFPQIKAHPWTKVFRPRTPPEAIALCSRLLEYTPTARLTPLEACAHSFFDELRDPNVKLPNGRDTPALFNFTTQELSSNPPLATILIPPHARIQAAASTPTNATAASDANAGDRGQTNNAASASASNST
protein,measurement,setting,value
RAC-PK immunoprecipitated or chromatographed from insulin-stimulated L6 myotubes (protein) MNDVAIVKEGWLHKRGEYIKTWRPRYFLLKNDGTFIGYKERPQDVEQRESPLNNFSVAQCQLMKTERPRPNTFIIRCLQWTTVIERTFHVETPEEREEWTTAIQTVADGLKRQEEETMDFRSGSPSDNSGAEEMEVALAKPKHRVTMNEFEYLKLLGKGTFGKVILVKEKATGRYYAMKILKKEVIVAKDEVAHTLTENRVLQNSRHPFLTALKYSFQTHDRLCFVMEYANGGELFFHLSRERVFSEDRARFYGAEIVSALDYLHSEKNVVYRDLKLENLMLDKDGHIKITDFGLCKEGIKDGATMKTFCGTPEYLAPEVLEDNDYGRAVDWWGLGVVMYEMMCGRLPFYNQDHEKLFELILMEEIRFPRTLGPEAKSLLSGLLKKDPTQRLGGGSEDAKEIMQHRFFANIVWQDVYEKKLSPPFKPQVTSETDTRYFDEEFTAQMITITPPDQDDSMECVDSERRPHFPQFSYSASGTA,GSK3 activity after incubation with MgATP and RAC-PK,[1],RAC-PK from insulin-stimulated L6 myotubes (but not from unstimulated or wortmannin-treated cells) inactivated GSK3-α and GSK3-β in vitro
same,"site of in vitro phosphorylation (tryptic peptide, solid-phase sequencing)",[1],"the third residue of these, corresponding to Ser9 (GSK3-β) or Ser21 (GSK3-α), was the site of phosphorylation in each phosphopeptide"
same,GSK3 activity after incubation with MgATP and RAC-PK,[2],RAC-PK from insulin-stimulated L6 myotubes (but not from unstimulated or wortmannin-treated cells) inactivated GSK3-α and GSK3-β in vitro
same,site of phosphorylation in Crosstide,[3],Akt/RAC phosphorylated the Ser in the Crosstide equivalent to Ser21 in GSK3-α and Ser9 in GSK3-β (data not shown)
